Experimental data reported in patent US20230039401A1, “COMPOSITIONS AND METHODS FOR TREATING NRP2-ASSOCIATED DISEASES” (aTyr Pharma, Inc., priority 2018, published 2023).
Ends that are not written are not given here.

Tests used:
[1] = system: murine model of sclerodermatous chronic graft vs. host disease (scl cGvHD); experiment: Murine model of sclerodermatous chronic graft vs. host disease; format: in vivo, mouse; details: Fc-HRS(2-60) 0.4 mg/kg weekly IV, nintedanib daily oral, termination 8 weeks
Method: This study was designed to investigate the in vivo potential of test compounds in a murine model of sclerodermatous chronic graft vs. host disease (scl cGvHD). A H-2^d minor histocompatibility antigen-mismatched model was employed. The model was prepared by allogenic transplantation of bone marrow cells and splenocytes of male donor B10.D2 mice into 8 week old female Balb/c mice which had been subject to whole body irradiation with 700 cGy 6 hours prior to transplantation.
Treatment Regimen. Fifty-six (56) Balb/c mice, (Janvier, Le Genest St. Isle, France, female, 8 weeks) were used as recipients in this study while B10.D2 mice (Jackson Laboratory, Bar Harbor, Me., USA, male) were euthanized to provide donor cells for allogenic transplantation. The animals were assigned to study groups of 8 mice, and housed in specific pathogen-free conditions with sterile food and water. In brief, animals received weekly intravenous injections of the Vehicle of Fc-HRS(2-60) (20 mM Histidine/125 mM NaCl/10 mM Methionine/3% Sucrose/0.02% PS20, pH 6.9) beginning on Day 7 post transplantation (groups 2 and 3) or Fc-HRS(2-60) (0.4 mg/kg) beginning on Day 7 (group 4) or Day 21 (group 6) post-transplantation. […] Tissues were examined histologically using common staining techniques and tissue homogenates were analyzed for hydroxyproline content as an index of collagen content. […]

FCGR2A = target: T1, FCGR2A (Homo sapiens, UniProt P12318); experiment: Retrogenix cell microarray screen, FCGR2A; format: binding; details: sequential staining method; 20 μg/ml test protein; expressed in HEK293 cells
T1 construct: host or cells: HEK293
T1 sequence (P12318 34-317): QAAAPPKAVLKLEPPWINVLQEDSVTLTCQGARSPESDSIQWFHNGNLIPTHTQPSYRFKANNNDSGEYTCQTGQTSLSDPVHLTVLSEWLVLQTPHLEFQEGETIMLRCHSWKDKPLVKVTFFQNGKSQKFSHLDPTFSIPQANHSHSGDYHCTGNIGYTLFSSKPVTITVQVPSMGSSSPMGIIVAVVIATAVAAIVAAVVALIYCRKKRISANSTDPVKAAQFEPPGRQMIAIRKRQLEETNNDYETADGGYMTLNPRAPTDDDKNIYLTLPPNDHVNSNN
Method: (§1) To identify potential interacting partners of HRS, and related HRS polypeptides, the Retrogenix cell microarray screening technology (Retrogenix Ltd., High Peak Rd, United Kingdom) was used to evaluate binding of a HRS-Fc fusion protein construct ([Fc-HRS(2-60)] to a library of approximately 4500 membrane bound human proteins individually expressed in HEK293 cells.
(§2) In brief, HEK293 cells were plated onto glass cover slides which have been pre-treated by the application of discrete expression vectors to enable reverse transfection and expression of each of the 4500 membrane proteins, to create a cell microarray. Transfection efficiencies were assessed via ZsGreen1 expression and exceeded the minimum threshold for all of the library members screened.
(§3) Use of a smaller HRS fragment with a Fc tag provided for high sensitivity detection via the use of an AlexaFluor647 labeled anti-human IgG Fc antibody (AF647) as the detection reagent, and readily available controls to confirm specificity. The detection antibody was used at screening concentrations of 2, 5, and 20 μg/ml, as more fully described below. […]
(§4) Primary hits (duplicate spots) were identified by analyzing fluorescence intensity in the AlexaFluor 647 and ZsGreen1 emission channels using the ImageQuant system, following standard fluorescent methodology. […]

SLC13A3 = target: T2, SLC13A3 (Homo sapiens, UniProt Q8WWT9); experiment: Retrogenix cell microarray screen, SLC13A3; format: binding; details: 20 μg/ml test protein; for Sequential incubation confirmatory screening result, SLC13A3: sequential staining method, expressed in HEK293 cells
T2 construct: host or cells: HEK293
T2 sequence (Q8WWT9 1-602): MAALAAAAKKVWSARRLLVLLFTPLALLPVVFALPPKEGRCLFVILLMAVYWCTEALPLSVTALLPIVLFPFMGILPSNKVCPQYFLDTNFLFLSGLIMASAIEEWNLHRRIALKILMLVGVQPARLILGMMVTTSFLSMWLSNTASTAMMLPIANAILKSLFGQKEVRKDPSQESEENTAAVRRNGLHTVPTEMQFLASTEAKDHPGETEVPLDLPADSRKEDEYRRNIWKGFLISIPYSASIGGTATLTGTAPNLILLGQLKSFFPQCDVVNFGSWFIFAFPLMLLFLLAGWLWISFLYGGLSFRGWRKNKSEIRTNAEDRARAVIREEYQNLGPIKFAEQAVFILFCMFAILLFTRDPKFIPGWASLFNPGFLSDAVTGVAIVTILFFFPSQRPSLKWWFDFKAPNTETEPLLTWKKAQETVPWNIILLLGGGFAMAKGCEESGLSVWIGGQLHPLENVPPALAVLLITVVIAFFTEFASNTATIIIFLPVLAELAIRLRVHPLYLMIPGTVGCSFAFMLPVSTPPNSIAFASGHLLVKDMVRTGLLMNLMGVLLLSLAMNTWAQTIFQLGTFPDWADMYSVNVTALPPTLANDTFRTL
Method: as §1, §2
Use of a smaller HRS fragment with a Fc tag provided for high sensitivity detection via the use of an AlexaFluor647 labeled anti-human IgG Fc antibody (AF647) as the detection reagent, and readily available controls to confirm specificity. The detection antibody was used at screening concentrations of 2, 5, and 20 μg/ml, as more fully described below.
Test Protein was screened at a concentration of 20 μg/ml using two different screening formats; either a sequential staining method, or a pre-incubation staining method. Sequential staining involved, in brief, the sequential addition to the test cells, of the test protein and detection reagents, while the pre-incubation staining method involved the pre-incubation of the test protein with the detection reagents (2:1 molar ratio of test protein to detection antibody) to pre-form higher avidity complexes prior to the addition to the test cells.
as §4

FCGR1A = target: T3, FCGR1A (Homo sapiens, UniProt P12314); experiment: Retrogenix cell microarray screen, FCGR1A; format: binding; details: sequential staining method; 20 μg/ml test protein; expressed in HEK293 cells
T3 construct: host or cells: HEK293
T3 sequence (P12314 16-374): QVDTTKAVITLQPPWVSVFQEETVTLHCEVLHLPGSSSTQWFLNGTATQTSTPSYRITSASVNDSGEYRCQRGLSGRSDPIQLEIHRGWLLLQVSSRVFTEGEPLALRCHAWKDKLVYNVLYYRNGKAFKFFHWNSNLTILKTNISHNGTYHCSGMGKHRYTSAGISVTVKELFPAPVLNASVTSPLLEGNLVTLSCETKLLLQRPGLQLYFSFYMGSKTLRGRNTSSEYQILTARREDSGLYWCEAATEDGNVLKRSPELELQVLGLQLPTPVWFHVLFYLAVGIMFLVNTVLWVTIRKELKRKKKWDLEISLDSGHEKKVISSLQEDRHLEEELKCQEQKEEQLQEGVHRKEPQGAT
Method: as §1, §2, §3, §4

CD86 = target: T4, CD86 (Homo sapiens, UniProt P42081); experiment: Retrogenix cell microarray screen, CD86; format: binding; details: 20 μg/ml test protein
T4 construct: host or cells: HEK293
T4 sequence (P42081 24-329): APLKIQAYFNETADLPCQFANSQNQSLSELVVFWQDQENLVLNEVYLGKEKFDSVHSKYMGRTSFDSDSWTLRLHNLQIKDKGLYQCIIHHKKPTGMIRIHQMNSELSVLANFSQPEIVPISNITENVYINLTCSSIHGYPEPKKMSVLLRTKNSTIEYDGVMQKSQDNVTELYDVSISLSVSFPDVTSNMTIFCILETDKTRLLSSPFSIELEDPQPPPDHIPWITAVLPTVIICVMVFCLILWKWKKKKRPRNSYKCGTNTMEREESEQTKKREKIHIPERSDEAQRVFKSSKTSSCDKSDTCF
Method: as §1, §2, §3, §4

IGHG3 = target: T5, IGHG3 (Homo sapiens, UniProt P01860); experiment: Retrogenix cell microarray screen, IGHG3; format: binding; details: sequential staining method; 20 μg/ml test protein; expressed in HEK293 cells
T5 construct: host or cells: HEK293
T5 sequence (P01860 whole entry): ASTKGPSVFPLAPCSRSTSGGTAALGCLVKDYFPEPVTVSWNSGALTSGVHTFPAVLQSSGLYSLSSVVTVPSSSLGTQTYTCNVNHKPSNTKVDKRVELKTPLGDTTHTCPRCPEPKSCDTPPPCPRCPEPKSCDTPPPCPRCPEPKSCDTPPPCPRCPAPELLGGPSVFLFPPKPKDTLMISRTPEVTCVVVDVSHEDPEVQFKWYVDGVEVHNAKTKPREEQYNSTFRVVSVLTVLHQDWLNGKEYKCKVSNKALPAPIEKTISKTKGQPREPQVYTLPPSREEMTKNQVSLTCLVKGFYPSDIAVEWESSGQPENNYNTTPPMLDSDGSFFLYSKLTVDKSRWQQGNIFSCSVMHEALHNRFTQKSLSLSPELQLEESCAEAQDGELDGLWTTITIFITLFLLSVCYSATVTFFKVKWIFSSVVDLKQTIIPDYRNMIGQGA
Method: as §1, §2, §3, §4

NRP2 = target: T6, NRP2 (Homo sapiens, UniProt O60462); experiment: SPR protein-protein interaction, human NRP2 over immobilized protein; format: binding; details: NRP2 flowed as analyte (50 nM or 20 nM); running buffer with 5 mM CaCl2
T6 construct: Fc (C); purchased R&D Systems 2215-N2
T6 sequence (O60462 21-931): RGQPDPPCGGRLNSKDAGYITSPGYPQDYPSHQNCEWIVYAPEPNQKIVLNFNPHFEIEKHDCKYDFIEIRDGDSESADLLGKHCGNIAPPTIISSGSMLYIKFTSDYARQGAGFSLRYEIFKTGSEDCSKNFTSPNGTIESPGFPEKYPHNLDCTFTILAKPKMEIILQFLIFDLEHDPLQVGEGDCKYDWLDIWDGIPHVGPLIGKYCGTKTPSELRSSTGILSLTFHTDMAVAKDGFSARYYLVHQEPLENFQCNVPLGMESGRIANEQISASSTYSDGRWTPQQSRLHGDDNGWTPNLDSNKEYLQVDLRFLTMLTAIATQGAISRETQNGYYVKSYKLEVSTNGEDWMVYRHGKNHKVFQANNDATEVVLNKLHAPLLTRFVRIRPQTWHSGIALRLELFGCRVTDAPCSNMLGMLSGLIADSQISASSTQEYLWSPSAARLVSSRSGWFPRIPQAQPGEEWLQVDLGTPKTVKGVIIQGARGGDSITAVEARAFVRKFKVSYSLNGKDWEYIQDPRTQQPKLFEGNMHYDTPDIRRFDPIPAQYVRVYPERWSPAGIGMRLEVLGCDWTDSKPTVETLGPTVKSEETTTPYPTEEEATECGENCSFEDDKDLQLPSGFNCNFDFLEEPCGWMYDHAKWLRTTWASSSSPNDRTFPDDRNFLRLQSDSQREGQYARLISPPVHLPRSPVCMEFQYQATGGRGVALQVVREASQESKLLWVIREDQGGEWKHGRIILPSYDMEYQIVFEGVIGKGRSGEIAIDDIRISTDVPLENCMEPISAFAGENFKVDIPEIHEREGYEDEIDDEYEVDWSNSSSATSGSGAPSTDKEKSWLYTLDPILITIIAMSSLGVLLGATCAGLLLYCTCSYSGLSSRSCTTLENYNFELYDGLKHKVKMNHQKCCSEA
Method: Protein-Protein Interaction studies. […] SPR experiments were conducted on a Bio-Rad ProteOn XPR36 Protein Interaction Array instrument. Proteins were immobilized on different channels of ProteOn GLC sensor chips through amine coupling. Analyte proteins were flowed over the immobilized proteins. The sensor chip surface was regenerated between each analyte run to remove interacting proteins. Data was double referenced against an interspot (untreated chip surface) and a blank surface (activated and deactivated for amine coupling).
Studies were performed to confirm the binding specificity of Neuropilin 2 (NRP2) to Fc-HRS(2-60) using orthologous methods to those used in the large scale Retrogenix screening (Example 1). In a series of experiments, Fc-HRS(2-60) and related proteins were immobilized on SPR chips, and NRP2 and related proteins were flowed as analytes. Upon confirmation of the NRP2:Fc-HRS(2-60) interaction, the dependence on divalent cations was tested as NRP2 is known to have Ca^2+ binding sites. The effects of previously characterized NRP2 ligands on the NRP2: Fc-HRS(2-60) interaction was also tested to determine if these known ligands have competitive effects on the Fc-HRS(2-60) interaction.

MS4A1 = target: T7, MS4A1 (Homo sapiens, UniProt P11836); experiment: Retrogenix cell microarray screen, MS4A1; format: binding; details: 20 μg/ml test protein
T7 construct: host or cells: HEK293
T7 sequence (P11836 1-297): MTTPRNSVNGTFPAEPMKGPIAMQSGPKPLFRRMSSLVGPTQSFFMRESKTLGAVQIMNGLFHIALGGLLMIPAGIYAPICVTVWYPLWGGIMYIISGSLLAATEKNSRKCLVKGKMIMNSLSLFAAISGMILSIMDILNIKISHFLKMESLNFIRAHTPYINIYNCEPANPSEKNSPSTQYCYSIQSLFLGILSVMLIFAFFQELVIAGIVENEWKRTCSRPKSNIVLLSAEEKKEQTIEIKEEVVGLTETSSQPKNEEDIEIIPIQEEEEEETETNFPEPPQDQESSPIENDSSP
Method: as §1, §2, §3, §4

[2] = pre-incubation staining method (2:1 test protein to detection antibody), HEK293 cells
[3] = sequential staining method, expressed in HEK293 cells

| Sequential incubation confirmatory screening result, FCGR2A (FCGR2A) | Sequential incubation confirmatory screening result, SLC13A3 (SLC13A3) | Sequential incubation confirmatory screening result, FCGR1A (FCGR1A) | Sequential incubation confirmatory screening result, IGHG3 (IGHG3) | binding of human NRP2 to immobilized protein (SPR) (NRP2) | Compound | further results |
| --- | --- | --- | --- | --- | --- | --- |
| – | – | – | – | – | COC(=O)c1ccc2c(c1)NC(=O)/C2=C(\Nc1ccc(N(C)C(=O)CN2CCN(C)CC2)cc1)c1ccccc1 [nintedanib] | measures of fibrosis in skin and lung ([1]; intervention beginning 7 days post-transplantation): significantly ameliorated all measures of fibrosis; fibrotic endpoints in skin and lung ([1]; intervention beginning 21 days post-transplantation): significantly improved most endpoints measured |
| NON SPEC | NON SPEC | NON SPEC | STRONG | – | CTLA4-FC | Pre-incubation confirmatory screening, Binding scoring, CD86 (CD86; [2]): STRONG; Sequential incubation confirmatory screening result, CD86 (CD86; [3]): STRONG |
| – | – | – | – | does not bind | GARS Fc-WHEP: Fc domain fused to the WHEP domain of GARS (VLAPLRLAVRQQGDLVRKLKEDKAPQVDVDKAVAELKARKRVLEAKELALQPKDDIV; not fully specified (N-terminus); also: fused to dimerising Fc domain (not included)) | – |
| – | – | – | – | does not bind | MARS Fc-WHEP: Fc domain fused to the WHEP domain of MARS (QIQALMDEVTKQGNIVRELKAQKADKNEVAAEVAKLLDLKKQLAVAEGKPPEAPKGK; not fully specified (N-terminus); also: fused to dimerising Fc domain (not included)) | – |
| NON SPEC | INVERSE | NON SPEC | STRONG | – | RITUXIMAB | Pre-incubation confirmatory screening, Binding scoring, SLC13A3 (SLC13A3; [2]): INVERSE; Pre-incubation confirmatory screening, Binding scoring, MS4A1 (MS4A1; [2]): STRONG; Sequential incubation confirmatory screening result, MS4A1 (MS4A1; [3]): STRONG |
| – | – | – | – | does not bind | WARS WHEP: WHEP domain of WARS with a V5/His tag (SLLELFNSIATQGELVRSLKAGNASKDEIDSAVKMLVSLKMSYKAAAGEDYKADCPP; also: V5/His tag (not included)) | – |
